We go through 1 variant from IntAct's records for PubMed 20126263.

The chains are these.
B1: TP53-binding protein 1 (Mus musculus), P70399-1 (parent)
chain: MPGEQMDPTGSQLDSDFSQQDTPCLIIEDSQPESQVLEEDAGSHFSVLSRHLPNLQMHKENPVLDIVSNPEQSAVEQGDSNSSFNEHLKEKKASDPVESSHLGTSGSISQVIERLPQPNRTSSALAVTVEAASLPEEEKEEEELEEEKEGVGANAPGADSLAAEDSASSQLGFGVLELSQSQDVEEHTVPYDVNQEHLQLVTTNSGSSPLSDVDASTAIKCEEQPTEDIAMIEQPSKDIPVTVQPGKGIHVVEEQNLPLVRSEDRPSSPQVSVAAVETKEQVPARELLEEGPQVQPSSEPEVSSTQEDLFDQSSKTASDGCSTPSREEGGCSPVSTPATTLQLLQLSGQKPLVQESLSTNSSDLVAPSPDAFRSTPFIVPSSPTEQGGRKDEPMDMSVIPVGGEPFQKLHDDEAMETEKPLLPSQPAVSPQASTPVSRSTPVFTPGSLPIPSQPEFSHDIFIPSPSLEEPSDDVKKGGGLHSSSLTVECSKTSESEPKNFTDDLGLSMTGDSCKLMLSTSEYSQSSKMESLGSPRTEEDRENTQIDDTEPLSPVSNSKLPADSENVLVTPSQDDQVEMSQNVDKAKEDETEDRGDCKGREDAVAEDVCIDLTCDSGSQAVPSPATRSEALSSVLDQEEAMDTKEHHPEEGFSGSEVEEVPETPCGSHREEPKEEPMESIPLHLSLTETQSEALCLQKEAPKEECPEAMEVETSVISIDSPQKLQVLDQELEHKDPDTWEEATSEDSSVVIVDVKEPSPRADVSCEPLEEVEKCSDSQSWEGVAPEEEPCAENRLDTPEEKRIECDGDSKAETTEKDAVTEDSPQPPLPSVRDEPVRPDQETQQPQVQEKESPVTVDAEVADDKQLGPEGACQQLEKAPACASQSFCESSSETPFHFTLPKEGDIIPPLTGATPPLIGHLKLEPKRHSTPIGISNYPESTIATSDVTSESMVEINDPLLGNEKGDSESAPEMDGKLSLKMKLVSPETEASEESLQFSLEKPTTAERKNGSTAIAEPVASLQKPVPVFGCIYEAQQEKEAQSEAPPSAPDRANLLHFPSAQEEDKERPDVTPKLRQSEQPVKPVGPVMDDAAPEDSASPVSQQRASQEQRASQEPFSPAEDVMETDLLEGLAANQDRPSKMLMDRPTQSNIGIQTVDHSLCAPETVSAATQTVKSVCEQGTSTAEQNSGKQDATVQTERGSGEKPASAPVDDTESLHSQGEEEFEMPQPPHGHVLHRHMRTIREVRTLVTRVITDVYYVDGTEVERKVTEETEEPIVECQECETEVSPSQTGGSSGDLGDISSFSSKASSSHHTSSGTSLSAIHSSGSSGRGAGPLKGKASGTEAADFALPSSRGGPGKLSPRKGISQTGAPVCEEDGDAGLGIRQGGKAPVTPRGRGRRGRPPSRTTGTRETVVSGPLGVEDISPSMSPDDKSFTRIMPRVPDSTKRTDASSSTLRRSDSPEIPFQAATGSSDGLDSSSSGNSFVGLRVVAKWSSNGYFYSGKITRDVGAGKYKLLFDDGYECDVLGKDILLCDPIPLDTEVTALSEDEYFSAGVVKGHRKESGELYYSIEKEGQRKWYKRMAVILSLEQGNRLREQYGLGPYEAVTPLTKAADISLDNLVEGKRKRRSNISSPVTPTAASSSSTTPTRKATESPRASTGVPSGKRKLPTSEEERSPAKRGRKSATVKPGTVGAAEFVSPCETGDNIGEPSVLEEPRGPLPLNKTLFLGYAFLLTMATTSDKLASRSKLLDGPTGSSEEEEEFLEIPPFNKQYTECQLRAGAGYILEDFNEAQCNTAYQCLLIADQHCRTRKYFLCLASGIPCVSHVWVHDSCHANQLQNYRNYLLPAGYSLEEQRILDWQPRENPFQNLKVLLVSDQQQNFLELWSEILMTGGAASVKQHHSSAHNKDIALGVFDVVVTDPSCPASVLKCAEALQLPVVSQEWVIQCLIVGERIGFKQHPKYKHDYVSH

In the assay the parent is B1. As to conditions: with plk1_human PLK1, P53350.
plk1_human PLK1, P53350, sequence (P53350 whole entry): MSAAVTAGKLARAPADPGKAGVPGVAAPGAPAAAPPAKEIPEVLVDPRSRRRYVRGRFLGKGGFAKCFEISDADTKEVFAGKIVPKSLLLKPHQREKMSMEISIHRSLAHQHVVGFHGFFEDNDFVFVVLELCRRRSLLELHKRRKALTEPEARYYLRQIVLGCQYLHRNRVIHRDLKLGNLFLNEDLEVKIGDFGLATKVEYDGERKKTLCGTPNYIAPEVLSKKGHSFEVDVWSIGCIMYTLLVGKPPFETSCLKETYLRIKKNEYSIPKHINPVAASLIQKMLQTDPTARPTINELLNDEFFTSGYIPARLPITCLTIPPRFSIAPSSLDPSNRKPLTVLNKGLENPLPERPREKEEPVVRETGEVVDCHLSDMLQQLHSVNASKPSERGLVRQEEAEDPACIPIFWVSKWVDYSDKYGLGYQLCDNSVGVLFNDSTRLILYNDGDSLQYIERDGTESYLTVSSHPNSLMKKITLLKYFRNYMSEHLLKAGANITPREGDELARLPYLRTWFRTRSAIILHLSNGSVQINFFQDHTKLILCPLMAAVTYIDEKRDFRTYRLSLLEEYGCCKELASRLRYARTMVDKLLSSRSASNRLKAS
Regarding S382A, the “effect of a mutation on the interaction” value is given as “disrupting interaction”.
